Experimental findings from article PMC11359509, “Anti-Skin Aging Potential, Antibacterial Activity, Inhibition of Single-Stranded DNA-Binding Protein, and Cytotoxic Effects of Acetone-Extracted Passiflora edulis (Tainung No. 1) Rind Extract on Oral” are described below.

The target of this data set is KpSSB (single-stranded DNA-binding protein) (Klebsiella pneumoniae, UniProt A6TGW7 1-174). As to the kind of experiment: EMSA; no extract; [Protein]50; 40 mM Tris-HCl pH 7.5, 50 mM NaCl, 37 °C, 60 min; 30 fmol/uL biotinylated ssDNA; 8% native PAGE in TBE. The note with it: protein: recombinant, tag not described, chain copies: 4.
KpSSB (single-stranded DNA-binding protein), sequence (A6TGW7 whole entry): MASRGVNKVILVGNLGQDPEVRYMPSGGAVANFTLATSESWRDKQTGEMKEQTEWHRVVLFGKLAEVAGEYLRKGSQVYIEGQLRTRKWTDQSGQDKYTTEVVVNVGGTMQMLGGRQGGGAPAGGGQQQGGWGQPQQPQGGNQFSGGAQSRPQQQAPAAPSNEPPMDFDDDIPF

B1: dT35 (ssDNA)
DNA: TTTTTTTTTTTTTTTTTTTTTTTTTTTTTTTTTTT
B1: the “apparent K (half saturation)” value was 206 ± 14.3 nM.
